Substitutions are numbered along the chain they refer to. In names and notes the source's numbering stands.
B1: C-terminal domain of Phl p 1.0102 (wild-type), GST tag removed (domain or fragment)
chain: KVTFHVEKGSNPNYLALLVKYVNGDGDVVAVDIKEKGKDKWIELKESWGAIWRIDTPDKLTGPFTVRYTTEGGTKTEAEDVIPEGWKADTSYESK
B2: IgE-hyporeactive (K8A, N11A, D55A) mutant of the C-terminal domain of Phl p 1.0102, GST tag removed (domain or fragment)
chain: B1 chain with K8A, N11A, D55A

Biological target: the molecule itself
Assay: SEC; gel filtration of the purified tag-free proteins; elution volumes corresponding to approximately 20 kDa; data not shown

Protein | stoichiometry N
B1 | 2
B2 | 2
